Laboratory results published in patent CN112707964A.
Changes are numbered by the printed parent chain.

B1: WT 1-5 (antibody, from another filing)
heavy: QVRLQESGPSQVKPAQTLSLTCAISGPSLTTYYLDWVRHTPGKPPEWLAQMTKDANAVHNPTVRSRLSITRDTSKSQVFLKLTGVTTEDTAVYYCVKGLIDFGPGLLVTVSSASTTPPKVYPLTSCCGDTSSSIVTLGCLVSSYMPEPVTVTWNSGALTSGVHTFPAILQSSGLYSLSSVVTVPASTSGAQTFICNVAHPASSTKVDKRVEPGCPDPCKHCRCPPPELPGGPSVFIFPPKPKDTLTISGTPEVTCVVVDVGQDDPEVQFSWFVDNVEVRTARTKPREEQFNSTFRVVSALPIQHQDWTGGKEFKCKVHNEGLPAPIVRTISRTKGQAREPQVYVLAPPQEELSKSTLSVTCLVTGFYPDYIAVEWQKNGQPESEDKYGTTTSQLDADGSYFLYSRLRVDKNSWQEGDTYACVVMHEALHNHYTQKSISKPPGK
light: QAVLTQPSSVSRSLGQTVSITCSGSSDQVGPGDYLNWFQLIPGSAPKTLIFAASSRIRGVPDRFSGSRSGNTATLTINSLQAEDEADYYCGSANSRNYVWGSGTRLTVLSQPKSAPSVTLFPPSKEELDTNKATVVCLISDFYPGSVNVVWKADGSTINQNVKTTQASKQSNSKYAASSYLTLTGSEWKSKSSYTCEVTHEGSTVTKTVKPSECS
B2: WT 1-4 (antibody, from another filing)
heavy: B1 heavy with L29V, L34V, N60Q, V63L, L99V
light: QAVLTQPSSVSRSLGQTVSITCSGSSDQVGPGDYVNWFQLIPGSAPKTLIFAATSRIRGVPDRFSGSRSGNTATLTINSLQAEDEADYYCGSGNSRGGYVWGSGTRLTVLSQPKSAPSVTLFPPSKEELDTNKATVVCLISDFYPGSVNVVWKADGSTINQNVKTTQASKQSNSKYAASSYLTLTGSEWKSKSSYTCEVTHEGSTVTKTVKPSECS
B3: WT 1-6 (antibody, from another filing, V domains shown)
VH: QVRLQESGPSQVKPAQTLSLTCAISGPSITTYYVDWVRHTPGKPPEWLAQMTKDANAVHQPTIRSRLSITRDTSKSQVFLKLTGVTTEDTAVYYCVKGLIDWGPGLLVTVSS
V domain: QAVLTQPSSVSRSLGQTVSITCSGSSDQVGPGDYLNWFQLIPGSAPKTLIFAASSRLRGVPDRFSGSRSGNTATLTINSLQAEDEADYYCGSANSRGGYVWGSGTRLTVLS
B4: WT 1-1 (antibody, from another filing, V domains shown)
VH: B3 VH with I29V, V34I, Q60N, L99V
V domain: QAVLTQPSSVSRSLGQTVSITCSGSSDNVGPGDYINWFQLIPGSAPKTLIFAAYSRIRGVPDRFSGSRSGNTATLTINSLQAEDEADYYCGSANSRNYVWGSGTRLTVLS
B5: WT 1-9 (antibody, from another filing, V domains shown)
VH: B3 VH with I29V, V34I, I63L
V domain: B3 V domain with Q28N, L35V, S54Y, A93G
B6: WT 1-7 (antibody, from another filing, V domains shown)
VH: B3 VH with I29V, V34L, I63V, L99V
V domain: B3 V domain with Q28N, L35I, S54Y, A93G
B7: WT 1-8 (antibody, from another filing, V domains shown)
VH: B3 VH with I29L, I63V, L99I
V domain: B4 V domain with I57V, A93P
B8: WT 1-2 (antibody, from another filing, V domains shown)
VH: B3 VH with I29L, V34I, I63L, L99V
V domain: B4 V domain with I35L, Y54S, A93P

Each binder was assayed against 重组NT抗原(自产，130410) (human) (UniProt P16860) (assay: BLI, antibody captured on AMC sensor, antigen in solution).
UniProt P16860, sequence (P16860 27-102): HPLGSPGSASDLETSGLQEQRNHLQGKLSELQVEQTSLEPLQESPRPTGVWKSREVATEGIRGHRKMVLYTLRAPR

Kd	Binder
5.31 nM	B1
9.63 nM	B2
5.25 nM	B3
6.25 nM	B4
7.55 nM	B5
6.76 nM	B6
8.36 nM	B7
6.74 nM	B8
